According to article PMC4112642, “Tomato PYR/PYL/RCAR abscisic acid receptors show high expression in root, differential sensitivity to the abscisic acid agonist quinabactin, and the capability to enhance plant drought resistance” (Journal of Experimental Botany, 2014):

Key:
[1] = molecular target: 6g061180 tomato ABA receptor, recombinant, purified for size exclusion chromatography (tomato (Solanum lycopersicum)); experiment: SEC; Superdex200 10/30 in 25mM TRIS-HCl pH 8.0, 200mM NaCl, 5mM beta-mercaptoethanol, in the absence of ABA; about 1mg loaded of 8g076960, 6g061180 or 6g050500 (concentrated to 10mg ml^-1), 0.1mg of 12g055990 (0.7mg ml^-1)
[2] = molecular target: 8g076960 tomato ABA receptor, recombinant, purified for size exclusion chromatography (tomato (Solanum lycopersicum)); experiment: as above
[3] = molecular target: T1, 6g061180 (Sl06g061180) with ΔN 12g096020 (Solanum lycopersicum, UniProt A0A3Q7HQZ7); experiment: receptor-mediated PP2C inhibition, RRA(phosphoT)VA phosphopeptide, molybdate dye; assay type: biochemical; conditions: agonist; 0.5 μM PP2C, 2 μM receptor, 0.1-10 μM ligand; 10 mM MgCl2, pH 7.5, 30 °C
T1 construct: gene LOC101267127; PP2C N-terminally deleted catalytic core 178-509; with Protein phosphatase 2C HAB1-like (clade A)
T1 sequence (A0A3Q7HQZ7 entry or part of it, stated change not applied): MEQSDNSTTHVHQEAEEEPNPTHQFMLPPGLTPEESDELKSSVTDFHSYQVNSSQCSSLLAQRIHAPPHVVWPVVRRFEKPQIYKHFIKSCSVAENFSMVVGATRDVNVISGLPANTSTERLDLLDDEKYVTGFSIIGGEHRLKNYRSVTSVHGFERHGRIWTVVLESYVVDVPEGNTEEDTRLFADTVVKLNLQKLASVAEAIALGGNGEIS

[4] = molecular target: T2, 8g076960 (Sl08g076960) with ΔN 12g096020 (Solanum lycopersicum, UniProt A0A3Q7HTY9); experiment: as above; assay type: biochemical; conditions: agonist; 0.5 μM PP2C, 2 μM receptor, 0.1-10 μM ligand; 10 mM MgCl2, pH 7.5, 30 °C
T2 construct: gene LOC101268417; PP2C N-terminally deleted catalytic core 178-509; with Protein phosphatase 2C HAB1-like (clade A)
T2 sequence (A0A3Q7HTY9 entry or part of it, stated change not applied): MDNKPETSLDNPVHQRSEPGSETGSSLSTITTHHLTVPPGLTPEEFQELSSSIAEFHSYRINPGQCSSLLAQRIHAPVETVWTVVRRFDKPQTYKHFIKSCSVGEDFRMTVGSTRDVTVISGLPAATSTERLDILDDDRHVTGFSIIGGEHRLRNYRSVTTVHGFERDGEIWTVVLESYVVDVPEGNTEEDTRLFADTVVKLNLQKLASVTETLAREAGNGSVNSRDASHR

[5] = molecular target: the molecule itself; experiment: SEC; Superdex200 10/30 in 25mM TRIS-HCl pH 8.0, 200mM NaCl, 5mM beta-mercaptoethanol, in the absence of ABA; about 1mg loaded of 8g076960, 6g061180 or 6g050500 (concentrated to 10mg ml^-1), 0.1mg of 12g055990 (0.7mg ml^-1)

6g061180 tomato ABA receptor, recombinant, purified for size exclusion chromatography
stoichiometry N [1]: 2

8g076960 tomato ABA receptor, recombinant, purified for size exclusion chromatography
stoichiometry N [2]: 2

CCCN1C(=O)CCc2cc(NS(=O)(=O)Cc3ccc(C)cc3)ccc21 [quinabactin]
% PP2C activity [3]: efficiently through the dimeric tomato receptors 8g076960 and 6g061180
% PP2C activity [4]: QB inhibited (compared with ABA) ΔN12g096020 phosphatase activity efficiently through the dimeric tomato receptors 8g076960

B1: 6g050500 tomato ABA receptor, recombinant, purified for size exclusion chromatography (receptor)
chain: MPSSLQLHRINPTTATLAVKQPQLSQATTWFSPVSTSVPDNVLHHHTHVVGPNQCCSAVLQSISAPIDTVWSLVRRFDNPQAYKHFLKSCHVIVGDGDVGTLREVRVVSGLPAGSSTERLEILDDEKHVLSFSVVGGDHRLNNYRSVTTLHRAAEEGSTVVVESYVVDVPQGNTKEETCVFVDTIVRCNLQSLAQIAQNLAKTSKNHDEDPQLKIHRLVDFV
stoichiometry N [5]: 2
